The values that follow come from US20170073395A1 (Pfizer, published 2017).

The target in assay [1] is T1, RAGE (cognate target of the anti-RAGE antibodies; species not stated at the place) (Homo sapiens (Human), UniProt Q15109 23-342).
T1 construct: not shown: Carrier or tag of the soluble construct
The assay can be described thus: Biacore SPR. As for the experimental part:
ABS leads in human IgG1 format were analyzed for specificity and stability.
(§1) Biacore analysis was performed using the T-200 biosensor, series S CM5 chips, an amine-coupling kit, 10 mM sodium acetate immobilization buffer at pH 5.0, 10×HBS-P running buffer and NaOH for regeneration (GE Healthcare). Kinetic assay conditions were established to minimize the influence of mass transfer, avidity and rebinding events. A predefined ligand immobilization program was set up to immobilize approximately 100 Response Units (RU) of IgG on the chip. Purified target proteins were diluted in HBS-P running buffer to a range of final concentrations and injected at 50 μl/min for 3 mins. Dissociation was allowed to proceed for 10 min followed by a 5 sec pulse of 20 mM NaOH for regeneration of the chip surface. All sensorgrams were analyzed using the Biacore T-200 evaluation software.
For orientation: SPR reads the build-up and loss of mass on a sensor chip optically.

Assay [2] has as its target T1, RAGE (cognate target of the anti-RAGE …). The assay can be described thus: Biacore T-200 SPR, IgG immobilised (~100 RU), purified target protein injected. As for the experimental part: as §1
Assay [3] addresses hLOX-1 (human, UniProt P78380 61-273). The experiment in a line: Biacore specificity assay: IgG immobilised (about 300 RU), antigen injected at 500 nM. The procedure: (§2) Biacore specificity analyses were performed using the T-200 biosensor, series S CM5 chips, an amine-coupling kit, 10 mM sodium acetate immobilization buffer at pH 5.0, 10× HBS-P running buffer and NaOH for regeneration (GE Healthcare). A predefined ligand (IgG) immobilization program was set up to immobilize approximately 300 Response Units (RU) on the flow cell for each IgG to be tested. For Anti-RAGE and anti-A33, a panel of fully-purified recombinant target and non-target antigens were diluted in HBS-P running buffer to a final concentration of 500 nM. Four groups of antigens were examined, including: cell membrane proteins (mTRKB, hTRKB, mEGFR, hEGFR, hFceR1, hIL-21R, mICAM1, mICAM2, hICAM1, hCD33, hLAMP-1, hLOX-1, and), soluble signaling molecules (mTNFa, hVEGF, hCXCL13) and albumins (BSA, HSA and MSA). These proteins were injected at 50 μl/min for 3 min, followed by a 5 sec pulse of 20 mM NaOH for regeneration of the chip surface. For pTau, a series of pTau-derived phosphorylated and non-phosphorylated peptides were flowed, as in Shih et al.³. All sensorgrams were analyzed using the Biacore T-200 evaluation software.

Assay [4] has as its target T2, HSA (UniProt P02768 25-609).
T2 construct: Non-target panel protein (albumins)
The description is as above. As for the experimental part: as §2

The target in assay [5] is T3, hFceR1 (human, UniProt P12319 26-205).
T3 construct: Non-target panel protein
T3 sequence (alpha): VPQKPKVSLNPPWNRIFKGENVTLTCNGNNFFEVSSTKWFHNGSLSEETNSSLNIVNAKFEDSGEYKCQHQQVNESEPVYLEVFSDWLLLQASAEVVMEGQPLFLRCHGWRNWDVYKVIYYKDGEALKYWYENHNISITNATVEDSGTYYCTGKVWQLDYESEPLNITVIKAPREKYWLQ
Described as above. As for the experimental part:
as §2

The target in assay [6] is T4, hEGFR (human, UniProt P00533 25-645, limits assumed).
T4 construct: Non-target panel protein
The assay is described as above. The procedure: as §2

Assay [7] addresses T5, MSA (UniProt P07724 25-608).
T5 construct: Non-target panel protein (albumins)
Described as above. The procedure: as §2

For assay [8], the target named is T6, mTRKB (mouse, UniProt P15209 32-429, limits assumed).
T6 construct: Non-target panel protein
T6 sequence (P15209 32-429 limits assumed): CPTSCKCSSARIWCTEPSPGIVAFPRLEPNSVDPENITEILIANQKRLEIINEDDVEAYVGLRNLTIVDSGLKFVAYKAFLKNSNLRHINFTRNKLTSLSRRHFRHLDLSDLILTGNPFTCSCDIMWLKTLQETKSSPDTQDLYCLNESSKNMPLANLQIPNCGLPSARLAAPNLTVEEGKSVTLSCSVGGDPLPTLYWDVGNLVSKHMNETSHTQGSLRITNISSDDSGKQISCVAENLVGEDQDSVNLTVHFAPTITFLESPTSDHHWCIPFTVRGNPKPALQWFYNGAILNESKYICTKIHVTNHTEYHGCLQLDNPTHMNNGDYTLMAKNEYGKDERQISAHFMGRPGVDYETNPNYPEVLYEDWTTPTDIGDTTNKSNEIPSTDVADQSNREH
The assay is described as above. As for the experimental part: as §2

For assay [9], the target named is T7, hLAMP-1 (human, UniProt P11279 29-382, limits assumed).
T7 construct: Non-target panel protein
T7 sequence (looked up): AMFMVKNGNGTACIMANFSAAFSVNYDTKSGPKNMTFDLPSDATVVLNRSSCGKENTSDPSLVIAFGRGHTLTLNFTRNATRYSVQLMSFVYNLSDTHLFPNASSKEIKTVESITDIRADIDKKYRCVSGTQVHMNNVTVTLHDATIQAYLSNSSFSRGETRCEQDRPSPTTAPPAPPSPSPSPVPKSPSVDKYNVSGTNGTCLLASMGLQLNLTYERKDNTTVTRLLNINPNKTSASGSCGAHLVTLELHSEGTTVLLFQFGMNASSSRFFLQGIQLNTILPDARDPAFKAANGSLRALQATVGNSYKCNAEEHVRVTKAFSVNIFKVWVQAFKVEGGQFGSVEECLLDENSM
The assay is described as above. As for the experimental part: as §2

The target in assay [10] is T8, hTRKB (human, UniProt Q16620 32-430, limits assumed).
T8 construct: Non-target panel protein
T8 sequence (Q16620 32-430 limits assumed): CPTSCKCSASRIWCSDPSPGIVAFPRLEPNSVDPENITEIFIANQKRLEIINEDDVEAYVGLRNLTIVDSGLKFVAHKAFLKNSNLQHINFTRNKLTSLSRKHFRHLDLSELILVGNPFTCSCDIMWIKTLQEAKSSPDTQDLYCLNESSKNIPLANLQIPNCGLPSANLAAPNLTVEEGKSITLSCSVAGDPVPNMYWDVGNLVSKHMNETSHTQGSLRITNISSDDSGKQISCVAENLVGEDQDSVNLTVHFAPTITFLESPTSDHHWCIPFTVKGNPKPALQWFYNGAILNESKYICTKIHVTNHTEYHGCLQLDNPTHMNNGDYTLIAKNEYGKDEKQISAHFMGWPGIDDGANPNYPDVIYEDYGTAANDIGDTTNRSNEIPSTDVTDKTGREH
Described as above. The procedure: as §2

The target in assay [11] is T9, hCXCL13 (human, UniProt O43927 23-109).
T9 construct: Non-target panel protein
T9 sequence (looked up): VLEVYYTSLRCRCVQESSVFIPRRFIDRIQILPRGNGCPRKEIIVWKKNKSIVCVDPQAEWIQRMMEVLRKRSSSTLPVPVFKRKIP
Described as above. As for the experimental part: as §2

For assay [12], the target named is T10, hICAM1 (human, UniProt P05362 28-480, limits assumed).
T10 construct: Non-target panel protein
T10 sequence (P05362 28-480 limits assumed): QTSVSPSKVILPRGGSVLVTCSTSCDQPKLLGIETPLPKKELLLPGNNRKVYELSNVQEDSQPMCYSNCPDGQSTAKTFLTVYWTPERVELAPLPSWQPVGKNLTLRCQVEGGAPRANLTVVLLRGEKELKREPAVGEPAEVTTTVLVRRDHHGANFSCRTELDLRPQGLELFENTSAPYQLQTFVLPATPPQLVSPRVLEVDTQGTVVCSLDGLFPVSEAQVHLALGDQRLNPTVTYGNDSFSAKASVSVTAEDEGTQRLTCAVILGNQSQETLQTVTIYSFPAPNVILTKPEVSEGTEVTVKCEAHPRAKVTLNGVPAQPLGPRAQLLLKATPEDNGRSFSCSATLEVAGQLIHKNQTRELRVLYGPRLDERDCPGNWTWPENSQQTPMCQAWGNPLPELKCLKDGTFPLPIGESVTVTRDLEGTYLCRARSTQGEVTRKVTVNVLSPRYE
The description is as above. As for the experimental part: as §2

The target of assay [13] is T11, hVEGF (human, UniProt P15692-4 27-191, limits assumed).
T11 construct: Non-target panel protein
T11 sequence (P15692 other isoform, or with tags, fused parts or gaps limits assumed): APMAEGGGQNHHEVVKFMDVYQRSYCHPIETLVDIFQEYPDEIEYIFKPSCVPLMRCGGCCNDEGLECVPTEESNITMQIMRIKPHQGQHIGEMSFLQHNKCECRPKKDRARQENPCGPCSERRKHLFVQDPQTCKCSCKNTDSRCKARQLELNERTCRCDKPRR
The assay is described as above. The procedure:
as §2

For assay [14], the target named is T12, mRAGE (mouse, UniProt Q62151 24-342, limits assumed).
T12 construct: also called mouse RAGE
T12 sequence (Q62151 24-342 limits assumed): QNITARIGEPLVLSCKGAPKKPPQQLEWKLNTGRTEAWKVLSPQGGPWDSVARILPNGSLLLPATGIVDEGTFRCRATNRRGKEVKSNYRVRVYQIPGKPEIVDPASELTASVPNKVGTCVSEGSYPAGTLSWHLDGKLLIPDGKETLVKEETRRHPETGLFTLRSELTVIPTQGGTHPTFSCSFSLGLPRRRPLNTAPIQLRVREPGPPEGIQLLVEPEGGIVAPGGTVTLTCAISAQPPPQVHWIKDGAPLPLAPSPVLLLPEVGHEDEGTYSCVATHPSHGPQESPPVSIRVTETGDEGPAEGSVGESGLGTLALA
The experiment in a line: Biacore specificity assay: IgG immobilised (about 300 RU), antigen m-RAGE-fc injected at 500 nM. The procedure:
as §2

T1 sequence (Q15109 23-342 limits assumed): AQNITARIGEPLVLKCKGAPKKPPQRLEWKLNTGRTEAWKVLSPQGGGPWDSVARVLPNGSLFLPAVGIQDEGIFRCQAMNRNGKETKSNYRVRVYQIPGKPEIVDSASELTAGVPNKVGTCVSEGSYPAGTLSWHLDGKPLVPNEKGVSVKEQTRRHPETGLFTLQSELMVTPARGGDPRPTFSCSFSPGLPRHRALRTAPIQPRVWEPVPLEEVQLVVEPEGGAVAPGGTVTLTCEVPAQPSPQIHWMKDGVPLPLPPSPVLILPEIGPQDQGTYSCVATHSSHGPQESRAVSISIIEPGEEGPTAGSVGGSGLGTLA
T2 sequence (P02768 25-609): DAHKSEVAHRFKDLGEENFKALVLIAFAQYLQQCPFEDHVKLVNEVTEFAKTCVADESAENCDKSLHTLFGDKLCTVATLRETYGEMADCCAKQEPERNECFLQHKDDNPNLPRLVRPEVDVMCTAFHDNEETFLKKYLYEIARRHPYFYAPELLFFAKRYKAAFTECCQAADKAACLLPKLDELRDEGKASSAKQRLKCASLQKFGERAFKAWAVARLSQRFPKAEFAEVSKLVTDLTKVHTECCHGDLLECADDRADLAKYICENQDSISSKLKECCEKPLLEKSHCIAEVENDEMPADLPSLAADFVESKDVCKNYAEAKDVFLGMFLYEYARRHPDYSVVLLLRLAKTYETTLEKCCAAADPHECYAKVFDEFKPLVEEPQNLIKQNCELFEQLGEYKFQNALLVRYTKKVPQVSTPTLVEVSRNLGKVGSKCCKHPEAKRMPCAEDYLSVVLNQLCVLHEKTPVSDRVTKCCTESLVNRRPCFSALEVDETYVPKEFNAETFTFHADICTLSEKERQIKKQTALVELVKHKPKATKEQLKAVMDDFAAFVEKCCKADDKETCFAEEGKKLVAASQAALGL

B1: C7-ABS-RAGE IgG (human IgG1) (antibody, V domains shown)
VH: EVQLVESGGGLVQPGGSLRLSCAASGFTFSSYWMSWVRQAPGKGLEWVASIDQDGSNKYYPDSVKGRFTISRDNAKNSLYLQMNSLRAEDTAVYYCARGGDITTGLDYWGQGTLVTVSS
VL: DIQMTQSPSSLSASVGDRVTITCRASQSIGSYLNWYQQKPGKAPKLLIYRASSLASGVPSRFSGSGSGTDFTLTISSLQPEDFATYYCLEFDEHPLTFGGGTKVEIK
notes: Human IgG1 format
What is called Kd is the equilibrium constant for the complex coming apart. Regarding B1, in [1], the “fold affinity improvement over Par-RAGE” value was about 2 fold. The Kd in assay [2] turned out to be 17 nM. The binding result in [3], in [4], in assay [5], in assay [6], in assay [7] and in [8] was “no binding (tested: 500 nM)” each time. In addition, the binding result is reported as “no binding (tested: 500 nM)” in assay [9]; “no binding (tested: 500 nM)” in assay [10]; “no binding (tested: 500 nM)” in [11]; “no binding (tested: 500 nM)” in assay [12]; “no binding (tested: 500 nM)” in [13]; “binds” in assay [14].
